From paper PMC5551413
One block for each substance: values may come before it.

Legend:
[1] = target: Streptococcus pyogenes NH3-dependent NAD+ synthetase (spNadE) (Streptococcus pyogenes); assay: dynamic light scattering
[2] = target: Streptococcus pyogenes NH3-dependent NAD+ synthetase (spNadE) (Streptococcus pyogenes); assay: SEC
[3] = target: Streptococcus pyogenes NH3-dependent NAD+ synthetase (spNadE) (Streptococcus pyogenes); assay: crystal structure
[4] = target: spNadC Δ69A deletion mutant (Streptococcus pyogenes); assay: crystal structure
[5] = target: Streptococcus pyogenes quinolinate phosphoribosyltransferase (spNadC) (Streptococcus pyogenes); assay: dynamic light scattering
[6] = target: Streptococcus pyogenes quinolinate phosphoribosyltransferase (spNadC) (Streptococcus pyogenes); assay: SEC

- stoichiometry N [1]: 2
- stoichiometry N [2]: 2
- stoichiometry N [3]: 2
Substance: Streptococcus pyogenes NH3-dependent NAD+ synthetase (spNadE) (enzyme)

Substance: spNadC Δ69A deletion mutant (enzyme)
- stoichiometry N [4]: 6

- stoichiometry N [5]: 6
- stoichiometry N [6]: 6
Substance: Streptococcus pyogenes quinolinate phosphoribosyltransferase (spNadC) (enzyme)
